Columns and labels:
[1] = molecular target: human CTLA-4, wild type, on CHO-K1 cells (human, UniProt P16410); assay: flow cytometry on cells
[2] = molecular target: CTLA-4 antigen (in solution, for HDX-MS and cross-linking) (human, UniProt P16410); assay: HDX-MS
[3] = molecular target: mouse CTLA-4, on CHO-K1 cells (Mus musculus, UniProt P09793); assay: ELISA

Chain of human CTLA-4, wild type, on CHO-K1 cells (P16410 36-223): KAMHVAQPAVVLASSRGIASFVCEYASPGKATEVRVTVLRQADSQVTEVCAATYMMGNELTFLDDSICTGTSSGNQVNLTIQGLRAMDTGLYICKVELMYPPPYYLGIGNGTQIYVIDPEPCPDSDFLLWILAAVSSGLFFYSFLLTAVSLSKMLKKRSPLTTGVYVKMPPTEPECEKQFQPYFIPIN
Chain of CTLA-4 antigen (in solution, for HDX-MS and cross-linking) (P16410 36-223): as above

binding result [1]: binds
binding result [2]: binds
binding result [3]: no binding
B1: tremelimumab (antibody, V domains shown)
VH: QVQLVESGGGVVQPGRSLRLSCAASGFTFSSYGMHWVRQAPGKGLEWVAVIWYDGSNKYYADSVKGRFTISRDNSKNTLYLQMNSLRAEDTAVYYCARDPRGATLYYYYYGMDVWGQGTTVTVSS
VL: DIQMTQSPSSLSASVGDRVTITCRASQSINSYLDWYQQKPGKAPKLLIYAASSLQSGVPSRFSGSGSGTDFTLTISSLQPEDFATYYCQQYYSTPFTFGPGTKVEIK

From paper PMC10730160 (mAbs, 2023)
